Source: US8765674B2, “Methods useful in the treatment of bone resorption diseases” (NPS Pharmaceuticals, Inc., priority 1997, dated 2014)

How the values were obtained:
[1] = system: patient with osteoporosis; conditions: during therapy with PTH, cited from earlier work
[2] = system: Postmenopausal females with osteoporosis; assay: Clinical study: PTH (1-84) given for one year, bone mineral density; type: in vivo, human; conditions: subcutaneous injection, 50 to 100 micrograms daily
Description: Postmenopausal females (n=172) with osteoporosis were given intact human PTH (1-84), as a subcutaneous injection, for one year in doses from 50 to 100 micrograms daily. It was shown that bone mineral density of the spine was increased in the lumbar spine, on the average by 8%. Increases in individual patients were considerably more than 10%. The changes of the femoral neck were smaller and ranged from 1 to 3%.

| Molecule | activation frequency ([1]; calculated) | bone mineral density in the femoral neck [1] | increases of lumbar spine bone mineral density in individual patients [2] | increase of bone mineral density of the lumbar spine, on the average ([2]; n=172) [%] |
| --- | --- | --- | --- | --- |
| PTH: Parathyroid hormone, an 84 amino acid polypeptide normally secreted from the parathyroid glands (protein, UniProt P01270 32-115, looked up) Parathyroid hormone: SVSEIQLMHNLGKHLNSMERVEWLRKKLQDVHNFVALGAPLAPRDAGSQRPRKKEDNVLVESHEKSLGEADKADVNVLTKAKSQ | doubled | largely unaffected |  |  |
| intact human PTH (1-84): intact human parathyroid hormone, full-length 84 amino acid polypeptide (protein, UniProt P01270 32-115, looked up) Parathyroid hormone: SVSEIQLMHNLGKHLNSMERVEWLRKKLQDVHNFVALGAPLAPRDAGSQRPRKKEDNVLVESHEKSLGEADKADVNVLTKAKSQ |  |  | more than 10% | 8 |
